Results published in patent US20130209454A1 (CALIFORNIA INSTITUTE OF TECHNOLOGY, published 2013).

Columns and labels:
Assay in all cases: cell-based or functional assay
[1] = biological target: HIV-1 Env of strain Q842.d12 (HIV-1)
[2] = biological target: HIV-1 Env of strain C3347.c11 (HIV-1)
[3] = biological target: HIV-1 Env of strain 1006_11_C3_1601 (HIV-1)
[4] = biological target: HIV-1 Env of strain 3415.v1.c1 (HIV-1)
[5] = biological target: HIV-1 Env of strain X1193_c1 (HIV-1)
[6] = biological target: HIV-1 Env of strain RHPA4259.7 (HIV-1)
[7] = biological target: HIV-1 Env of strain ZM249M.PL1 (HIV-1)
[8] = biological target: HIV-1 Env of strain 0815.v3.c3 (HIV-1)
[9] = biological target: HIV-1 Env of strain 89-F1_2_25 (HIV-1)
[10] = biological target: HIV-1 Env of strain 620345.c01 (HIV-1)
[11] = biological target: HIV-1 Env of strain T250-4 (HIV-1)
[12] = biological target: HIV-1 Env of strain 211-9 (HIV-1)
[13] = biological target: HIV-1 Env of strain 3718.v3.c11 (HIV-1)
[14] = biological target: HIV-1 Env of strain 703357.C02 (HIV-1)
[15] = biological target: HIV-1 Env of strain C1080.c03 (HIV-1)
[16] = biological target: HIV-1 Env of strain THRO4156.18 (HIV-1)
[17] = biological target: HIV-1 Env of strain 3103.v3.c10 (HIV-1)
[18] = biological target: HIV-1 Env of strain 231966.c02 (HIV-1)
[19] = biological target: HIV-1 Env of strain TRO.11 (HIV-1)
[20] = biological target: HIV-1 Env of strain T251-18 (HIV-1)
[21] = biological target: HIV-1 Env of strain QH0692.42 (HIV-1)
[22] = biological target: HIV-1 Env of strain T255-34 (HIV-1)
[23] = biological target: HIV-1 Env of strain AC10.0.29 (HIV-1)
[24] = biological target: HIV-1 Env of strain T257-31 (HIV-1)
[25] = biological target: HIV-1 Env of strain Ce0393_C3 (HIV-1)
[26] = biological target: HIV-1 Env of strain R1166.c01 (HIV-1)
[27] = biological target: HIV-1 Env of strain CNE30 (HIV-1)
[28] = biological target: HIV-1 Env of strain CNE17 (HIV-1)
[29] = biological target: HIV-1 Env of strain X2131_C1_B5 (HIV-1)
[30] = biological target: HIV-1 Env of strain 928-28 (HIV-1)
[31] = biological target: HIV-1 Env of strain ZM214M.PL15 (HIV-1)
[32] = biological target: HIV-1 Env of strain ZM197M.PB7 (HIV-1)
[33] = biological target: HIV-1 Env of strain Q23.17 (HIV-1)
[34] = biological target: HIV-1 Env of strain 1054_07_TC4_1499 (HIV-1)
[35] = biological target: HIV-1 Env of strain 0330.v4.c3 (HIV-1)
[36] = biological target: HIV-1 Env of strain P1981_C5_3 (HIV-1)
[37] = biological target: HIV-1 Env of strain P0402_c2_11 (HIV-1)
[38] = biological target: HIV-1 Env of strain SC422661.8 (HIV-1)
[39] = biological target: HIV-1 Env of strain 62357_14_D3_4589 (HIV-1)
[40] = biological target: HIV-1 Env of strain Ce2060_G9 (HIV-1)
[41] = biological target: HIV-1 Env of strain 231965.c01 (HIV-1)
[42] = biological target: HIV-1 Env of strain Q259.d2.17 (HIV-1)
[43] = biological target: HIV-1 Env of strain 6811.v7.c18 (HIV-1)

B1: NIH45-46 IgG (antibody, V domains shown)
VH: QVRLSQSGGQMKKPGESMRLSCRASGYEFLNCPINWIRLAPGRRPEWMGWLKPRGGAVNYARKFQGRVTMTRDVYSDTAFLELRSLTSDDTAVYFCTRGKYCTARDYYNWDFEHWGRGAPVTVSS
VL: EIVLTQSPATLSLSPGETAIISCRTSQSGSLAWYQQRPGQAPRLVIYSGSTRAAGIPDRFSGSRWGADYNLSISNLESGDFGVYYCQQYEFFGQGTKVQVDI
- neutralization IC50 [1]: 0.031 µg/mL
- neutralization IC50 [2]: 0.029 µg/mL
- neutralization IC50 [3]: 0.027 µg/mL
- neutralization IC50 [4]: 0.022 µg/mL
- neutralization IC50 [5]: 0.021 µg/mL
- neutralization IC50 [6]: 0.017 µg/mL
- neutralization IC50 [7]: 0.017 µg/mL
- neutralization IC50 [8]: 0.014 µg/mL
- neutralization IC50 [9]: > 50 µg/mL
- neutralization IC50 [10]: > 50 µg/mL
- neutralization IC50 [11]: > 50 µg/mL
- neutralization IC50 [12]: > 50 µg/mL
- neutralization IC50 [13]: 19.6 µg/mL
- neutralization IC50 [14]: 19.2 µg/mL
- neutralization IC50 [15]: 2.48 µg/mL
- neutralization IC50 [16]: 1.91 µg/mL
- neutralization IC50 [17]: 1.77 µg/mL
- neutralization IC50 [18]: 1.64 µg/mL
- neutralization IC50 [19]: 1.61 µg/mL
- neutralization IC50 [20]: 1.35 µg/mL
- neutralization IC50 [21]: 0.72 µg/mL
- neutralization IC50 [22]: 0.71 µg/mL
- neutralization IC50 [23]: 0.56 µg/mL
- neutralization IC50 [24]: 0.49 µg/mL
- neutralization IC50 [25]: 0.334 µg/mL
- neutralization IC50 [26]: 0.31 µg/mL
- neutralization IC50 [27]: 0.309 µg/mL
- neutralization IC50 [28]: 0.261 µg/mL
- neutralization IC50 [29]: 0.23 µg/mL
- neutralization IC50 [30]: 0.23 µg/mL
- neutralization IC50 [31]: 0.17 µg/mL
- neutralization IC50 [32]: 0.15 µg/mL
- neutralization IC50 [33]: 0.14 µg/mL
- neutralization IC50 [34]: 0.113 µg/mL
- neutralization IC50 [35]: 0.09 µg/mL
- neutralization IC50 [36]: 0.08 µg/mL
- neutralization IC50 [37]: 0.073 µg/mL
- neutralization IC50 [38]: 0.06 µg/mL
- neutralization IC50 [39]: 0.06 µg/mL
- neutralization IC50 [40]: 0.058 µg/mL
- neutralization IC50 [41]: 0.051 µg/mL
- neutralization IC50 [42]: 0.043 µg/mL
- neutralization IC50 [43]: 0.035 µg/mL
